According to the nanobody polyreactivity screen of Harvey et al. (2022):

Experiment: yeast display, Sf9 membrane polyspecificity reagent, FACS + sequencing; frameworks hold sequencing errors
Procedure, shortened: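 Nanobodies came from a synthetic yeast display library in Saccharomyces cerevisiae BJ5465, induced with galactose for 36–48 hours and stained for 1 hour at 4 °C with 10% biotinylated, detergent-solubilized Sf9 membrane reagent. Cells were enriched on streptavidin microbeads and then FACS-sorted, with low and high (top ~1%) gates set on anti-HA fluorescence for expression and streptavidin fluorescence for reagent binding. Each polyreactivity label reflects the gate a clone came from. Genes were amplified by colony PCR, sequenced by MiSeq 2 × 250 and filtered by CDR length.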

Sequence | polyreactivity (PSR sort gate)
QVQLVESGRGLVQAGGSLRLSCAASGRIFSTYAMGWYRQAPGKERELVAAISWRGSSTYYADSVKGRFTISRDNAKNTVYLQMNSLKPEDPAVYYCNADKANRYDWGQGTQVTVSS | high polyreactivity
QVQLVESGGGLVQAGGSLRLSCAASGSTFEYNAMGGYRQAPGKERELVASSTNYADSVKGRFTISRDNAKKTVYLQMTSLKPEDTAVYYCAREQGVNRNHDYWGQGTQVTVSS | low polyreactivity
QVQLVESGGGLVQAGGSLRLSCAASGRTFGYTMGWYRQAPGKERELVAAITRSVTTYYADSVKGRFTISRDNAKNTVYLQMNSLKPEDTAVYYCAAVNTLREMYWGQGTQVTVSS | high polyreactivity
QVQLVESGGGLVQAGGSLRLSCAASGSTFSAYAMGGYRQAPGKERELVAVITSGASTYYADSVKGRFTISRDNAKNTVYLQMNSLKPEDTAVYYCAAYGYSYRGWRMDYWGQGTQVTVSS | high polyreactivity
QVQLVESGGGLVQAGGSLRLSCAASGRIFRYYAMGWYRQAPGQERELVAAISWRGGITNYADSVKGRFTISRDNAKNTVYLQMNSLKPEDTAVYYCNRVQGPDSQAKTSMYYWGQGTQVTVSS | high polyreactivity
QVQLVESGGGLVQAGGSLRLSCAPSGSTFRRNAMGWSRQAPGKERELVAANSGSGGRTYYADSVKGRITISRDNAKNTVYLQMNSMKPEDTAVYYCAARSTVYEFFYYRGWWEYYYWGQGTQVTVSS | low polyreactivity
QVQLVESGGGLVQAGGSLRLSCAASGFIFYSNMGWYRQARGKEREFVAAITWRGGSTYADSVKGRFTISRDNAKNTVYLQMNSLKPEDTAVYYCARESYRAHTPGHPSGTRFGYWGQGTQVTVSS | high polyreactivity
QVQLVESGGGLVQAGGSLRLSCAASGSARYDMGWYRQPNGKERELVAAISRRGGSTFYADSVKGRFTISRDNAKNTVYLQMNSLKPEDTAVYYCAADGRISYDYWGQGTQVTVSS | low polyreactivity
QDQLVESGGGLVQAGGSLRLSCAASGITLFYYAMGWYRQAPGKERELVAVISASGGSTYYADSVKGRFTISRDNAKNTVYLQMNSLKQEDTAVYYCAAVAYWRSSSWYYYWGLGTQVTVSS | high polyreactivity
QVQLVESGGGLVQAGGSLRLSCAASGITFYYNAMGWYRQAPGKERELVADISARGGSTYYADSVKGRFTISRDNAKNTVYLQMNCLIPEDTAVYYCNTYPKKKRPNEYDYWGQGTQVSVSS | high polyreactivity
QEQQQESGGGLVQAGGSLRLSCSSSGSIILFYTMGWYRHAPVKERECVAGITLGTTTYNADSVKGRFTISRDNVKISVYLQMNSLKPEDTAVDYCAVAVGHYTEFWYWGQGTQVTMSS | high polyreactivity
QVQLVESGGGLVQAGGSLRLSCAASGIIFPWYDMGWYRQAPGKERELVAGITDGGDTTYADSVKWRFTISRDNAKNTVYLQMNSLKPEDTAVYYCAADIGYGYWHFDYWGQGTQVTVSS | low polyreactivity
QVQLVESGGGLVQAGGSLRLSCAASGFTFAYIAMGWYRQAPGKERELVAAITVSGGRTYYADTVKGRFTISRDNAKNTVYLQMYSLKPEDTAVYYCAATVRVRTNSWMDYWGQGTQVTVSS | low polyreactivity
QVQLVESGGGLVQAGGSLRLSCAASGRIFSVNAMGWYRQAPGKERELVASISWSGGSTYYADSVKGRFTISRDNAKNTVYLQMNSLKPEDTAVYYCNARIESYWLDFDYWGQGTQVTVSS | low polyreactivity
QVQLVESGGGLVQAGGSLRLSCAASGFTLSNNAMGWYRQAPGKERELVAGLTSGGDSTNYADSVKGRFTISRDNAKNTVYLQMNSLKREDTAVYDCAAQGGTNTPGVVESDYWGQGTQVTVSS | low polyreactivity
HEHLQESRGGLVQAGGSLRLSCAASGSIFQATYMGWYRQAPRKEREFVASITYGSITNYADSVKGRFTIGRDNATDTLYLQMNSLKQEDTAVYYWAVDRHYIPAFHYWGQGTQVTVSS | low polyreactivity
QVQLVESGGGLVQAGGSLRLSCAASGFTFARYTRVWSRQAPGKERELVAAISKRGTSTYYADSVKGRFTISRDNAQNTVYLQMNSLKAEDTAVYYCAATPGTGYGDYDYWGQGTQVTVSS | high polyreactivity
